From US12006530B2, “Streptococcal proteases” (priority 2016, dated 2024) come the findings set out here.

Series [1] deals with human IgG. Kind of series: IgG cleavage by IgdE, SDS-PAGE. It counts as biochemical. The note with it: purified polyclonal IgG, reducing SDS-PAGE. The procedure: (A) rIgdEagalactiae was incubated with polyclonal IgG of six different species for 18 h at 37° C. and analyzed by SDS-PAGE under reducing conditions. Degradation products are indicated by asterisks (*). Images of different gels have been used to create the figure. (B) rIgdEagalactiae was incubated with human or bovine serum for 18 h in 37° C. and analyzed by SDS-PAGE under reducing conditions. Degradation products are indicated by asterisks (*). (C) Western Blot with crude extracts of rIgdEagalactiae incubated with human and porcine serum for 18 h in 37° C. Membrane was treated with antibodies against human and porcine polyclonal IgG respectively. Degradation products are indicated by asterisks (*). (D) rIgdEagalactiae was incubated with subclasses of human IgG as well as human IgA and IgM for 18 h in 37° C. and analyzed by SDS-PAGE under reducing conditions. Degradation products are indicated by asterisks (*). Images of different gels have been used to create the figure.
(§1) 0.5 mg/ml of porcine IgG (Sigma) in PBS or of other species (human, goat, cow, horse and mouse; all Sigma) were incubated with either crude extracts of induced E. coli carrying S. suis IgdE constructs mentioned above or 10 nM purified rIgdE for 16 h at 37° C. prior subjection to SDS-PAGE under either reducing or non-reducing conditions.
(§2) Samples for SDS-PAGE were prepared with either reducing or non-reducing sample buffer and heated to 95° C. for 5 min. 12% SDS-PAGE was either stained with Coomassie blue (Sigma), Coomassie Fluor™ Orange Protein Gel Stain (Invitrogen) or blotted to Hybond-P PVDF membrane (GE Healthcare) for western blot analyses. Membranes were blocked with 5% dry milk powder in 0.1% PBS-Tween, followed by incubation with horse-radish peroxidase conjugated antibodies. Goat anti-pig IgG-HRP (Thermo Scientific) and goat anti-porcine IgM-HRP (Thermo Scientific) was diluted 1:25′000 and goat anti-porcine IgA-HRP (Thermo Scientific) was diluted 1:12′500. Membranes were thoroughly washed with 0.1% PBS-Tween prior to development with Amersham ECL Select Western blotting detection reagent (GE Healthcare) according to manufactures instruction and pictured by LAS4000 imaging system (Fujifilm).

In series [2] the test system is IgG in equine serum. Kind of series: Ig cleavage in equine serum, anti-IgG Western blot. The series is classed as biochemical, horse.
In series [3] the test system is rat IgG. Kind of series: IgG cleavage by IgdE, SDS-PAGE. The series is classed as biochemical. To be noted: purified polyclonal IgG.
Series [4] has as its system IgG. Kind of series: IgG degrading cysteine protease activity: specificity as summarised. The series is classed as biochemical. To be noted: summary statement. The text has this: Typically, polypeptides for use in accordance with the invention display immunoglobulin cysteine protease activity, and in particular IgG degrading cysteine protease activity. Preferably, the polypeptide cleaves IgG in the hinge region and more particularly in the hinge region of the heavy chain. Preferably, cleavage results in production of Fc and Fab fragments of IgG. Preferably the activity is specific for IgG. The IgG degrading cysteine protease activity may be determined by means of a suitable assay. For example, a test polypeptide may be incubated with IgG at a suitable temperature, such as 37° C. The starting materials and the reaction products may then be analysed by SDS PAGE to determine whether the desired IgG cleavage product is present. Typically this cleavage product is a 32 kDa fragment. Typically there is no further degradation of IgG after this first cleavage. The cleavage product may be subjected to N-terminal sequencing to verify that cleavage has occurred in the hinge region of IgG.
The IgG degrading cysteine protease activity of the polypeptides is generally IgG-specific in that the polypeptides may not degrade other classes of Ig, namely IgM, and IgA, when incubated with these immunoglobulins under conditions that permit cleavage of IgG.

Series [5] deals with horse IgG. Description: IgG cleavage by IgdE, SDS-PAGE. It counts as biochemical. To be noted: purified polyclonal IgG, reducing SDS-PAGE. How it is done:
as §1, §2

Series [6] deals with cow IgG. Description: IgG cleavage by IgdE, SDS-PAGE. It counts as biochemical. The note with it: purified polyclonal IgG, reducing SDS-PAGE. How it is done:
as §1, §2

Series [7] has as its system goat IgG. Description: IgG cleavage by IgdE, SDS-PAGE. The series is classed as biochemical. The note with it: purified polyclonal IgG, reducing SDS-PAGE. The procedure: as §1, §2
In series [8] the test system is mouse IgG. Description: IgG cleavage by IgdE, SDS-PAGE. To be noted: purified polyclonal IgG, reducing SDS-PAGE. The series is classed as biochemical. How it is done:
as §1, §2

Series [9] relates to porcine IgG. Kind of series: IgG cleavage by IgdE, SDS-PAGE. The series is classed as biochemical, pig. To be noted: purified polyclonal IgG, reducing SDS-PAGE. The procedure, abridged: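 Porcine IgG (3.3 μM; 0.5 mg/ml), or IgG from other species, was incubated for 16 h at 37 °C with E. coli lysates expressing rIgdE constructs or with 10 nM purified rIgdE. Cleavage was judged on 12% SDS-PAGE under reducing or non-reducing conditions, by Coomassie staining or by western blot with anti-porcine IgG, IgM or IgA.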

For series [10], the system named is equine IgG7. Description: Cleavage of recombinant equine IgG subtypes, SDS-PAGE. The series is classed as biochemical, horse. To be noted: 0.6 μM, 16 h at 37° C., reducing SDS-PAGE. How it is done: (§3) 0.6 μM recombinant equine IgG subtypes or serum IgG were incubated for 16 h at 37° C. with (+) or without (−) the soluble fraction of E. coli cells expressing rIgdEequi. Reactions were analyzed by SDS-PAGE under reducing conditions. […] SDS-PAGE was either stained with Coomassie Fluor Orange Protein Gel Stain (A) or subjected to Western blot (B) analyses with Rabbit Anti-Horse IgG H&L (HRP) ab6921.

Series [11] deals with equine IgG1. The description is as above. It counts as biochemical, horse. To be noted: 0.6 μM, 16 h at 37° C., reducing SDS-PAGE. How it is done: as §3
For series [12], the system named is equine IgG4. The series is described as above. The series is classed as biochemical, horse. To be noted: 0.6 μM, 16 h at 37° C., reducing SDS-PAGE. The procedure:
as §3

Series [13] deals with equine IgG3. The series is described as above. It counts as biochemical, horse. The note with it: 0.6 μM, 16 h at 37° C., reducing SDS-PAGE. The procedure:
as §3

Series [14] deals with equine IgG5. The series is described as above. It counts as biochemical, horse. To be noted: 0.6 μM, 16 h at 37° C., reducing SDS-PAGE. How it is done: as §3
The subject of series [15] is equine IgG6. The series is described as above. It counts as biochemical, horse. To be noted: 0.6 μM, 16 h at 37° C., reducing SDS-PAGE. How it is done: as §3
The subject of series [16] is equine IgG2. Described as above. The series is classed as biochemical, horse. To be noted: 0.6 μM, 16 h at 37° C., reducing SDS-PAGE. The procedure:
as §3

Series [17] deals with rabbit IgG. Kind of series: IgG cleavage by IgdE, SDS-PAGE. The series is classed as biochemical. The note with it: purified polyclonal IgG.

B1: IgdEequi: IgdE isolated from S. equi strain ssp zooepidemicus #1, SEQ ID NO: 7 (protein, listed as Streptococcus equi)
chain: MEAWKHGSMEAWKHGSMEAWKHGRTLCKGLLLGLACGAISMSLVVKSTIVVADDVRLSEQSTVILDNTVSNLISEVKDELAKNHQDALEIYILGEGSPKYSGVSPDRLGDYIKDYKPVRLNGKVIHGRAFFMMKKEDQLISTKEEYDRIIAERFSNLEKFDYPTIHYTFNAELKDKYPYLSLILKASGLSLSDSINLGSTLGINGVTIHTQHLRIDNQFAYRYNGEDYKQDSHITFDRFKKNDDKLKELIATSGANQEGLTDAQRVKAYVLYMANHVDYDWDATRYNPDYLIFCQASDLFALTERNKAMCIGFSTAAARGLNLLGIPSYVTYGKNRDGVAHATIRAFYDKKWRTLDVTGVGRGKYTEEHYDNLNTHDYKIFDLTKETNVDLDRGYMEIYKDFEDWILSHNTKELLFINQDANIRNKVAKDVFKYIQEAEKQSLIDKYNEFIIRTSALKAEFKTDRLKEIVGSLVSQAQEELENIKHIEVMTEDEKDQFEYTLRNLGVYYSQCESANQ
For the molecule B1, in [1], the “cleavage of polyclonal human IgG (32 kDa degradation product)” value is reported as “No degradation product was observed”. In addition, the “cleavage of IgG in equine serum” value in series [2] is recorded as “cleaved IgG in equine serum”. Besides, the “cleavage of polyclonal rat IgG” value in [3] is “No degradation product was observed”. Also, in series [4], the “immunoglobulin specificity of the IgG degrading cysteine protease activity” value is “specific for equine IgG, and specifically equine IgG7”. Further, the “cleavage of polyclonal horse IgG” value in [5] is reported as “cleaved”. The “cleavage of polyclonal cow IgG” value in series [6] is recorded as “No degradation product was observed”. In addition, in series [7], the “cleavage of polyclonal goat IgG” value was “No degradation product was observed”. In addition, the “cleavage of polyclonal mouse IgG” value in series [8] is listed as “No degradation product was observed”. Further, in [9], the “cleavage of polyclonal porcine IgG (32 kDa degradation product)” value is on record as “No degradation product was observed”. Moreover, the “cleavage of recombinant equine IgG7 (32 kDa degradation product)” value in [10] is “cleaved”. Further, in [11], the “cleavage of recombinant equine IgG1” value is given as “No degradation product was observed”. Also, the “cleavage of recombinant equine IgG4” value in series [12] is “No degradation product was observed”. For the same molecule, the “cleavage of recombinant equine IgG3” value in series [13] is listed as “No degradation product was observed”. For the same molecule, the “cleavage of recombinant equine IgG5” value in [14] is “No degradation product was observed”. Further, the “cleavage of recombinant equine IgG6” value in series [15] is on record as “No degradation product was observed”. Besides, the “cleavage of recombinant equine IgG2” value in series [16] is recorded as “No degradation product was observed”. Also, the “cleavage of polyclonal rabbit IgG” value in series [17] is recorded as “No degradation product was observed”.
